Patent publication US20220041746A1 (Sanofi, published 2022)
Positions count from the first letter of the chain named. Several values for one entry are separate records, joined by “and”; a condition that tells them apart may be missing. Equal values may be shown once. Values belong to the binder of their own block, whether it stands above or below them.

Assays:
[1] = molecular target: T1, human CD3 (Cambridge Biologics LLC Cat #03-01-0051) (human, UniProt P07766 23-126; P09693 23-116); test: ELISA on coated hCD3 γε IgG4; the arrow ends on the second curve from the right, which carries the small markers
T1 construct: the reagent may hold further CD3 chains
Protocol: (§1) The binding properties of the purified antibodies were analyzed either using ELISA or SPR methods. For ELISA, corresponding antigens for each binding site in the trispecific binding protein were used to coat a 96-well Immuno Plate (Nunc 439454, Thermo Fisher Scientific) overnight at 4° C. using 2 μg/ml each antigen m PBS(pH7.4). The coated plate was blocked using 5% skim milk 12% BSA in PBS for one hour at RT, followed by washing with PBS+[…] three times (Aqua Max 400, Molecular Devices). Serial dilution of antibodies (trispecific and control Abs) were prepared and added onto the ELISA plates (100 μl/well in duplicate), incubated at RT for one hour, followed by washing 5 times with PBS+0.25% Tween 20.
(§2) The reaction was terminated by adding 50 μl 1M H₂SO₄, and OD₄₅₀ was measured using SpectraMax M5 (Molecular Devices) and analyzed using SoltMax Pro6.3 software (Molecular Devices). The final data was transferred to GraphPad Prism software (GraphPad Software, CA. USA), and plotted as shown. EC50 was calculated using the same software.

[2] = molecular target: T2, recombinant human CD38 (SPR of Example 4) (human, UniProt P28907 45-300, limits assumed); test: SPR (column 'KD value against rec. protein by SPR (nM)'); second value of the pair, taken for CD3low
[3] = molecular target: T2, recombinant human CD38 (SPR of Example …); test: SPR; KD rounded to an integer; second value of the pair, taken for CD3low
Protocol: (§3) Surface regenerate was conducted by injecting 10 mM Glycine-HCl pH 2.5 for 60 sec at 30 μl/min. […] Equilibrium dissociation constant (KD) was calculated using association rate constant (kₒₙ) and dissociation rate constant (koff).

[4] = molecular target: human CD28 (SPR of Example 4) (human, UniProt P10747 19-152, limits assumed); test: as above
Protocol: as §3

hCD38-his (SEQ ID NO: 2) [5] = molecular target: T3, hCD38-his (SEQ ID NO: 2) (human, UniProt P28907 45-300); test: ELISA on hCD38::Histag
T3 construct: His-tagged soluble protein derived from isoform A; also called human CD38-histag; hCD38::Histag

[6] = molecular target: T4, human CD38 expressed on the cell surface (human, UniProt P28907 1-300); test: flow cytometry (column FACS EC50 nM, hu)
T4 construct: whole, on cells; also called hCD38-expressing cells; huCD38
Protocol: (§4) The recombinant cell line was described by J. Deckket et al. 2014 Clin Cancer Res 20:4574-4583. […] Antibody binding was evaluated after centrifugation and resuspension of cells by adding 200 μL/well PBS 1% BSA and read using Guava® easvCyte™ 8HT Flow Cytometry System. Apparent KD and EC50 values were estimated using BIOST@T-BINDING and BIOST@T-SPEED software, respectively.

hCD38-his (SEQ ID NO: 2) [7] = molecular target: T3, hCD38-his (SEQ ID NO: 2); test: ELISA (column ELISA EC50 nM, hu)
[8] = molecular target: T4, human CD38 expressed on the cell surface; test: flow cytometry on preB::300.19 cells, apparent KD
Protocol: as §4

[9] = molecular target: T5, cynomolgus monkey CD38 expressed on the cell surface (cynomolgus monkey, UniProt Q5VAN0 1-301); test: flow cytometry on preB::300.19 cells, apparent KD
T5 construct: whole, on cells; also called cCD38-expressing cells
Protocol: as §4

cCD38-his (SEQ ID NO: 4) [10] = molecular target: T6, cCD38-his (SEQ ID NO: 4) (cynomolgus monkey, UniProt Q5VAN0 46-301); test: ELISA on cynoCD38::Histag [Cont.]
T6 construct: His-tagged soluble protein; also called cyno CD38-histag; cynoCD38::Histag

[11] = molecular target: T5, cynomolgus monkey CD38 expressed on the …; test: flow cytometry (FACS) on 300.19 PreB cynoCD38 cells [Cont.]
Protocol: as §4

cCD38-his (SEQ ID NO: 4) [12] = molecular target: T6, cCD38-his (SEQ ID NO: 4); test: ELISA (column ELISA EC50 nM, cyno)
[13] = molecular target: T5, cynomolgus monkey CD38 expressed on the …; test: flow cytometry (column FACS EC50 nM, cyno)
Protocol: as §4

hCD38-his (SEQ ID NO: 2) [14] = molecular target: T3, hCD38-his (SEQ ID NO: 2); test: SPR, mAb captured via anti-human Fc, soluble CD38-his injected
Protocol: (§5) The binding properties of the anti-huCD38 mabs were evaluated using a BIAcore 2000 (BIAcore Inc., Uppsala, Ni). […] The surface was regenerated between injections using 30 μL of 50 mM NaOH-1 M NaCl. Individual sensorgrams wore analyzed using BIAsimulation software.

cCD38-his (SEQ ID NO: 4) [15] = molecular target: T6, cCD38-his (SEQ ID NO: 4); test: as above
Protocol: as §5

[16] = molecular target: T4, human CD38 expressed on the cell surface; test: flow cytometry (FACS) on 300.19 PreB hCD38 cells
Protocol: as §4

[17] = molecular target: T4, human CD38 expressed on the cell surface; test: flow cytometry, 'Apparent KD value against rec. cells by FACS (nM)'; single value of the mid/low row, equal to the EC50 of the CD3mid protein in FIG. 6B
Protocol: as §4, with “Clin.” for “Clin”, “μl/well” for “μL/well”, “easyCyte™” for “easvCyte™”, “BIOST®T-BINDING” for “BIOST@T-BINDING”, “BIOST®T-SPEED” for “BIOST@T-SPEED”

[18] = molecular target: T2, recombinant human CD38 (SPR of Example …); test: SPR (column 'KD value against rec. protein by SPR (nM)'); first value of the pair, taken for CD3mid
[19] = molecular target: T2, recombinant human CD38 (SPR of Example …); test: SPR; KD rounded to an integer; first value of the pair, taken for CD3mid
[20] = molecular target: T4, human CD38 expressed on the cell surface; test: flow cytometry on 300.19 huCD38 cells (PréB hCD38)
Protocol: as §4, with “Clin.” for “Clin”, “μl/well” for “μL/well”, “easyCyte™” for “easvCyte™”, “BIOST®T-BINDING” for “BIOST@T-BINDING”, “BIOST®T-SPEED” for “BIOST@T-SPEED”

[21] = molecular target: T5, cynomolgus monkey CD38 expressed on the …; test: flow cytometry on 300.19 cynoCD38 cells (PréB cCD38)
Protocol: as §4, with “Clin.” for “Clin”, “μl/well” for “μL/well”, “easyCyte™” for “easvCyte™”, “BIOST®T-BINDING” for “BIOST@T-BINDING”, “BIOST®T-SPEED” for “BIOST@T-SPEED”

[22] = molecular target: human CD38 (Cambridge Biologics LLC Cat #03-01-0369) (human, UniProt P28907 43-300); test: ELISA on coated hCD38-His
Protocol: as §1, §2

hCD38-his (SEQ ID NO: 2) [23] = molecular target: T3, hCD38-his (SEQ ID NO: 2); test: ELISA on hCD38::Histag; remark: listed apart in the source
cCD38-his (SEQ ID NO: 4) [24] = molecular target: T6, cCD38-his (SEQ ID NO: 4); test: ELISA on cynoCD38::Histag [Cont.]; remark: listed apart in the source
[25] = molecular target: T1, human CD3 (Cambridge Biologics LLC Cat …); test: ELISA on coated hCD3 γε IgG4; the arrow ends on the rightmost curve, which carries the triangles
Protocol: as §1, §2

B1: CD38VH1×CD28cvn×CD3low IgG4 (other)
VH 1: QVQLVQSGAEVVKPGASVKVSCKASGYTFTSYAMHWVKEAPGQRLEWIGYIYPGQGGTNYNQKFQGRATLTADTSASTAYMELSSLRSEDTAVYFCARTGGLRRAYFTYWGQGTLVTVSS
VL 1: DIVLTQSPATLSLSPGERATISCRASQSVSSYGQGFMHWYQQKPGQPPRLLIYGASSRATGIPARFSGSGSGTDFTLTISPLEPEDFAVYYCQQNKEDPWTFGGGTKLEIK
VH 2: QVQLQESGPGLVKPSQTLSLTCTVSGFSLSDYGVHWVRQPPGKGLEWLGVIWAGGGTNYNPSLKSRKTISKDTSKNQVSLKLSSVTAADTAVYYCARDKGYSYYYSMDYWGQGTTVTVSS
VL 2: DIVLTQSPASLAVSPGQRATITCRASESVEYYVTSLMQWYQQKPGQPPKLLIFAASNVESGVPARFSGSGSGTDFTLTINPVEANDVANYYCQQSRKVPYTFGQGTKLEIK
VH 3: QVQLVESGGGVVQPGRSLRLSCAASGFTFTKAWMHWVRQAPGKGLEWVAQIKDKSNSYATYYADSVKGRFTISRDNSKNTLYLQMNSLRAEDTAVYYCRGVYYALSPFDYWGQGTLVTVSS
VL 3: DIVMTQTPLSLSVTPGQPASISCKSSQSLVHNNGNTYLSWYLQKPGQSPQLLIYKVSNRFSGVPDRFSGSGSGTDFTLKISRVEAEDVGVYYCGQGTQYPFTFGGGTKVEIK
notes: also called CD38VH1×CD28evn×CD3low IgG4
EC50 [1]: 0.491 nM | Kd [2]: 6 nM | Kd [3]: 6 nM | Kd [4]: 34 nM

B2: mAb3 (antibody, human IgG1, kappa, V domains shown)
VH: B1 VH 1 with Y32F, A33N, Q55N
VL: DIVLTQSPATLSLSPGERATISCRASESVDSYGNGFMHWYQQKPGQPPRLLIYLASSRATGIPARFSGSGSGTDFTLTISPLEPEDFAVYYCQQNKEDPWTFGGGTKLEIKR
notes: also called antiCD38_C2-CD38-1_VH3-VL3
EC50 (hCD38-his (SEQ ID NO: 2) [5]): 0.16 nM | EC50 [6]: 0.78 nM | EC50 (hCD38-his (SEQ ID NO: 2) [7]): 0.16 nM | Kd [8]: 0.78 nM | Kd [9]: 1.31 nM | EC50 (cCD38-his (SEQ ID NO: 4) [10]): 0.15 nM | EC50 [11]: 1.31 nM | EC50 (cCD38-his (SEQ ID NO: 4) [12]): 0.15 nM | EC50 [13]: 1.31 nM | Kd (hCD38-his (SEQ ID NO: 2) [14]): 0.483 nM | koff (hCD38-his (SEQ ID NO: 2) [14]): 0.000283 s⁻¹ | Kd (cCD38-his (SEQ ID NO: 4) [15]): 0.71 nM | koff (cCD38-his (SEQ ID NO: 4) [15]): 0.000129 s⁻¹ | EC50 [16]: 0.78 nM and 0.117 µg/mL

B3: CD38VH1×CD28sup×CD3mid IgG4 (other)
VH 1: B1 VH 1
VL 1: B1 VL 1
VH 2: QVQLVQSGAEVVKPGASVKVSCKASGYTFTSYYIHWVRQAPGQGLEWIGSIYPGNVNTNYAQKFQGRATLTVDTSISTAYMELSRLRSDDTAVYYCTRSHYGLDWNFDVWGKGTTVTVSS
VL 2: DIQMTQSPSSLSASVGDRVTITCQASQNIYVWLNWYQQKPGKAPKLLIYKASNLHTGVPSRFSGSGSGTDFTLTISSLQPEDIATYYCQQGQTYPYTFGQGTKLEIK
VH 3: B1 VH 3 with G44Q, N76D
VL 3: B1 VL 3 with G34A, L51S, G105S
notes: also called anti-CD38(VH1)×CD28(sup)×CD3(mid)
Kd [17]: 11 nM | Kd [18]: 4 nM | Kd [19]: 4 nM | EC50 [20]: 11 nM and 1.67 µg/mL | EC50 [21]: 17 nM and 2.53 µg/mL | EC50 (read off the curve) [22]: ~3 nM

Results, then the binder that gave them:

EC50 [6]: 0.68 nM | EC50 (hCD38-his (SEQ ID NO: 2) [7]): 0.14 nM | Kd [8]: 0.68 nM | Kd [9]: 1.07 nM | EC50 (hCD38-his (SEQ ID NO: 2) [23]): 0.14 nM | EC50 (cCD38-his (SEQ ID NO: 4) [24]): 0.14 nM | EC50 [11]: 1.06 nM and 0.16 µg/mL | EC50 (cCD38-his (SEQ ID NO: 4) [12]): 0.14 nM | EC50 [13]: 1.06 nM | Kd (hCD38-his (SEQ ID NO: 2) [14]): 0.312 nM | koff (hCD38-his (SEQ ID NO: 2) [14]): 0.000333 s⁻¹ | Kd (cCD38-his (SEQ ID NO: 4) [15]): 0.563 nM | koff (cCD38-his (SEQ ID NO: 4) [15]): 0.000125 s⁻¹ | EC50 [16]: 0.68 nM and 0.102 µg/mL
B4: mAb5 (antibody, human IgG1, kappa, V domains shown)
VH: B1 VH 1 with V20M, Y32F, A33N, Q55N, L83I
VL: B2 VL
notes: also called antiCD38_C2-CD38-1_VH6-VL3

Kd [2]: 6 nM | Kd [3]: 6 nM | Kd [4]: 4 nM | EC50 (read off the curve) [22]: ~6 nM | EC50 [25]: 1.04 nM
B5: CD38VH1×CD28sup×CD3low IgG4 (other)
VH 1: B1 VH 1
VL 1: B1 VL 1
VH 2: B3 VH 2
VL 2: B3 VL 2
VH 3: B1 VH 3
VL 3: B1 VL 3
